In the nanobody polyreactivity screen of Harvey et al. (2022):

Assay: yeast display, Sf9 membrane polyspecificity reagent, FACS + sequencing; frameworks hold sequencing errors
Outline: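 In a synthetic yeast display library (Saccharomyces cerevisiae BJ5465), nanobody expression was induced with galactose for 36–48 hours. FACS gates were set low and high (top ~1%) using anti-HA fluorescence for expression and streptavidin fluorescence for binding of the Sf9 membrane reagent. Each polyreactivity label is drawn from the gate of origin.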

| Sequence | polyreactivity (PSR sort gate) |
| --- | --- |
| QVQLVESGGGLVQAGGSLRLSCAASGFIFYSYAMGWYRQAPGKERELVAAITEDGDSTYYADSVKGRFTISRDNAKNTVYLQMNSLKPEDTAVYYCNTDLTFNGTSGDYDYWGQGTQVTVSS | low polyreactivity |
| QVQLVESGGGLVQAGGSLRLSCAASGFIFYSYTMVWYRQAPGKERELVASISRRGGITYYADSVKGRFTISRDNAKNTVYLQMNILIPEDTAVFYCAAYSWRRQGDHYDYWGQGTKVTVSS | high polyreactivity |
| QVQLVESGGGLVQAGGSLRLSCAASGFIFYTYAIGWYRQAHGKERELVAAISRGGRTNYADSVKGRFTISRDNAKNSVYLQMNSLKPEDPAVYYCPSSYSHRYDYWGQGTQVTVSS | high polyreactivity |
| QVQLVESGGGLVQAGGSLRLSCAASGFIFYTYAMGWYIQAPGKERELVAAINTSGSTTNYADSVKGRFTISRDNAKNTVYLQMNSLKPEDTAVYYCAAEWNVSPYDYWGQGTQVTVSS | low polyreactivity |
| QVQLVESGGGLVQAGGSLRLSCAASGFIFYVKAMGWYRKAPGKERELVASITNGGSTTYADSVKGRFTISRDNAKNTDDLQMNSLKPEDTAVYYCHASGLDFSYFDEFNYWGQGTQVTVSS | low polyreactivity |
| QVQLVESGGGLVQAGGSLRLSCAASGFIFYYNAMGWYRPAPGTERELVATINNDGGSSTYADSVKGRFTISRDNAKNTVYLQMNSLKPEDTAVYYCNAEAFYFTHTVWIPYYYWGQGTQVTVLS | low polyreactivity |
| QVQLVESGGGLVQAGGSLRLSCAASGFIFYYNAMGWYRQAPGKERELVAAISSSAGSTYYADSVKGRFTISRDNAKNTVYLQMNSLKPEDTAVYYCNADSSYRTIDSASDYDYWGQGTQVTVSS | low polyreactivity |
| QVQLVESGGGLVQAGGSLRLSCAASGFIFYYNAMVWYRQAPGKERELVAAITDDGGGTYYADSVKGRFTISRDNAKNTVYLQMNSLKPEDTAVYYCAADGYNYEHDYWGQGTQVTVSS | low polyreactivity |
| QVQLVESGGGLVQAGGSLRLSCAASGFIFYYYAMGWYRQAPGKERELVAAITGSGGNTYYADSVKGRFTISRDNEKNSVFFHMNSLKPEDTAVYYCNTGYDRGGDYWGQGTQVTVSS | high polyreactivity |
| QVQLVESGGGLVQAGGSLRLSCAASGFIFYYYAMGWYRQAPGKERELVAGIDKTGGSTYYADSVKGRFTISRDNAKNTVYFQMNSLKPEDTAVYYCAAGYFFPRLRFRNYAYVYWGQGTQVTVSS | high polyreactivity |
| QVQLVESGGGLVQAGGSLRLSCAASGFIFYYYAMGWYRQAPGKERELVAVLAVSGSSTYYADSEKGRFTISRDNAKNIVFLQKNSLKPEDTAVYYCNADFWPYTGKYDYWGQGTQVTVSS | low polyreactivity |
| QVQLVESGGGLVQAGGSLRLSCAASGFIFYYYAMGWYRQATGKERELDASISSDGSTYYADSVKGRFTISRDNAKNTVYLQMNSLKPEDTAVYYCNADRYYPDDLSDGVGTYDYWGQGTQVTVSS | low polyreactivity |
| QVQLVESGGGLVQAGGSLRLSCAASGFIIAQYAMGWYRQAPGKERELVAGITSTGSTNYADSVKGRFTISRDNAKNTVYLQMNSLKPEDTAVYYCNTDYITASAVFDYDYWGQDTQVTVSS | low polyreactivity |
| QVQLVESGGGLVQAGGSLRLSCAASGFIIAYYAMGWYRQAPGKERELVAAISRRGGSTYYADSVKGRFTISRDNAKNTVYLQMNSLKPEDTAVYYCAKAHYLSDYNYWGQGTQVTVSS | high polyreactivity |
| QVQLVESGGGLVQAGGSLRLSCAASGFIIGGYAMGWYRQAPGKERELVASITSGGRTYYADSVKGRFSISRDNAKNTVFLQMNSLKPEDTAVYDCAARQQTYYYKIYYWGQGSQVTVSS | high polyreactivity |
| QVQLVESGGGLVQAGGSLRLSCAASGFIIGVNDMGWYRQPPGKERELVAAITSGGNTNYADSVKGRFTISRDNAKNTVYLQMNSLKPEDTAVYYCIVDTRLPMDYWGQGTQVTVSS | low polyreactivity |
| QVQLVESGGGLVQAGGSLRLSCAASGFIIPVYAMGWYRQAPGKERELVAAITYSGARTYYADSVKGRFTISRDNAKNTVYLQMNSLKPEDTAVYYCAAAPGYLKYSPGHYGYNYWGQGTQVTVSS | high polyreactivity |
| QVQLVESGGGLVQAGGSLRLSCAASGFIIYYNAMGWYRQAPGKEREFVAGISFSGDGRTYYADSVKGRFTISRDNAKNTVYLQMNSLKPEDTAVYYCAAPHRSRTHELDYWGQGTQVTVSS | low polyreactivity |
| QVQLVESGGGLVQAGGSLRLSCAASGFILGYNAMGWYRQAPGKERELVADITFSGGGTNYADSVKGRFTISRDNAKNSVYLQMNSLKPEDTAVYYCNAAAFSQLRVRYDYWGQGTQVTVSS | low polyreactivity |
| QVQLVESGGGLVQAGGSLRLSCAASGFILNQYAMGWYRQAPGKERELVAAISNGGSTNYADSVKGRFTISRDNAKNTVYLQMNSLKPEDTAVYYCAKDQSLTYSSVWGYDYWGQGTQVTVSS | low polyreactivity |
| QVQLVESGGGLVQAGGSLRLSCAASGFILQGYAMGWYRQAPGKERELVATITTSSRTYYADSVKGRFTISRDNAKNTVYLQMNRLKPEDTAVYYCDKSVYPYGYYYGQMDYWGQGTQVTVSS | high polyreactivity |

| Sequence | polyreactivity (PSR sort gate) |
| --- | --- |
| QVQLVESGGGLVQAGGSLRLSCAASGFILSPYAMGWYRQAPGKERELGAVITISGGSTYYADSVKGRFTISRDNAKNTVYLQMNSLKPEDTAVYYCAADYYDLVYDYYYWGQGTQVTVSS | high polyreactivity |
| QVQLVESGGGLVQAGGSLRLSCAASGFILSRYTMGWYRQAPGKERELVATISSGGRTYYADSVKGRFTISRDNAKNTVYLQMNSLKPEDTAVYYCAAAYTYWRIPGNRYLYDYWGQGTQVTVSS | high polyreactivity |
| QVQLVESGGGLVQAGGSLRLSCAASGFILSRYTMGWYRQAPGKERELVATISSGGRTYYADSVKGRFTISRDNAKNTVYLQMNSLKPEDTAVYYCAAAYTYWRISGNRYLYDYWGQGTQVTVSS | high polyreactivity |
| QVQLVESGGGLVQAGGSLRLSCAASGFILVGYAMGWYRQARGKERELVAAITSGGTTSYADAVKGSFIISRDNAKNTVYLQMISLKPEESAVYYCAAVQWDSSSKYYYWGQGTQVTVSS | low polyreactivity |
| QVQLVESGGGLVQAGGSLRLSCAASGFILYFNAMGWYRQAPGKERELVAAITSDGGSTYYADSVKGRFTISRDNAKNTVYLQMNSLKPEDTAVYYCAADASTWYTEEYWGQGTQVTVSS | low polyreactivity |
| QVQLVESGGGLVQAGGSLRLSCAASGFILYFNAMGWYRQAPGKERELVAVISGTGVRTNYADSVKGRFTISRDNAKNTVYLQMYSLKPEDTAVYYCAAGYYSYRPRDYWGQGTQVTVSS | low polyreactivity |
| QVQLVESGGGLVQAGGSLRLSCAASGFILYGNARGWYRQAPGKERELVAAISSSGRTNYADYVKGRFTISRDNAKNTVYLQMNRLKPEDTAVYYCADYVRAGYGMGYWGQGTQVTVSS | low polyreactivity |
| QVQLVESGGGLVQAGGSLRLSCAASGFILYYNAMGWYRQAPGKERELVADISRRGTSTYYADSVKGRFTISRDNAKNTVYLQMNRLKPEDTAVYYCKAVPSARTQPYNGWGQGTQVTVSS | high polyreactivity |
| QVQLVESGGGLVQAGGSLRLSCAASGFILYYYAMGWYRQAPGKERELVAAISSGGNTDYADSVKGRFTISRDNAKNTVYLQMNSLKPEDTAVYYCAARGYHYSYLRGDTGYYYWGQGTQVTVSS | low polyreactivity |
| QVQLVESGGGLVQAGGSLRLSCAASGFINSDYAMGWYRPAPGKERELVAVITWRSGSTYYADSVKGRFTISRDYAKNTVYLQMNSLKPEDTAVYYCAARNYRNYSQGRRLGYNDWGQGTQVTVTS | high polyreactivity |
| QVQLVESGGGLVQAGGSLRLSCAASGFIQDLYVMGWYRQAPGKERELVAAISSVGSTYADSVKGRFTISRDNAKNTVYLQMNSLKPEDTAVYYCAKDGTDYDYNYWGQGTQVTVSS | low polyreactivity |
| QVQLVESGGGLVQAGGSLRLSCAASGFISDWYAMGWFRQAPGKERELVATIDWLGGSTYAHSVKGRFTISRDNAKNTVYLQMNSLKPEDTAVYYCAADSYFIAWYGAPYAYDYWGQGTQVTVSS | low polyreactivity |
| QVQLVESGGGLVQAGGSLRLSCAASGFISPNAMGWYRQAPGKERELVAAISRSGGSTYYADSVKGRFTISRDNAKNTVYLQMNSLKTEDTAVYYCAAGRLYSYRRQYGYWGQGTQVTVSS | high polyreactivity |
| QVQLVESGGGLVQAGGSLRLSCAASGFISPQNTMGWYRQAPGKERELVAAITSGGSTYYADSVKGRFTISRDNAKNTVYLLMNSLKPEDTAVYYCASRPYGTWTYGYWGQGTQVTVSS | low polyreactivity |
| QVQLVESGGGLVQAGGSLRLSCAASGFISSINAMGWYRQAPGKERELVAGIRARGTSTYYADSVKGRFTISRDNAKNTVYLQMNSLKPEDTAVYYCAADFTYQGSSANDYWGQGTQVTVSS | low polyreactivity |
| QVQLVESGGGLVQAGGSLRLSCAASGFISSYYAMGWYRQAPGKERELVAAITSGGRTYYADSVKGRFTISRDNAKNTDYLQMNSLKPEDTAVYYCGKYSRTNAFDYWGQGTQVTVSS | high polyreactivity |
| QVQLVESGGGLVQAGGSLRLSCAASGFIVNVYAMVWYRQAPGKERELVAAISTSGSNTYYADSVKGRFTISLDNAKNTVYLQMNSLKPEDTAVYYCNAVRDRVRWHYYAVYYWGQGTQVTVSS | high polyreactivity |
| QVQLVESGGGLVQAGGSLRLSCAASGFIVVFNAMGWYRQAPGKERELVAAINGGDITNYADSVKGRFTISRDNAKNTVYLQMNSLKPEDTAVYYCAADGEDSMWTGYDYDYWGQGTQVTVSS | low polyreactivity |
| QVQLVESGGGLVQAGGSLRLSCAASGFIWSYVMGWYRQAPGKERQLVAAISRSGGRTYYADSVKGRFTISRDNEKNTVYLQMNSLKPEDTAVYYCAKDGGWSRLHYNYWGQGTQVTVSS | high polyreactivity |
| QVQLVESGGGLVQAGGSLRLSCAASGFIYDYAMGWYRQAPGKEREFVARINWSGGSTYYADSVKGRFTISRDNAKNTVYLQMNSLKPEDTAVYYCATSGWAWRSSNPYEYWGQGTQVTVSS | low polyreactivity |
